Results reported in publication PMC4971460.

Target: MBP-GS fusion construct Δ2 (not stated | E. coli) [MBP: P0AEX9]
Test: cryo-EM structure

## MBP-GS fusion construct Δ2 (from UniProt P0AEX9 27-396; P0A9C5 3-469)
  stoichiometry N: 12
